Literature values, collected in article PMC5302535.

Target: transferrin receptor (TfR) (Homo sapiens) (UniProt P02786)
Sequence (P02786 89-760): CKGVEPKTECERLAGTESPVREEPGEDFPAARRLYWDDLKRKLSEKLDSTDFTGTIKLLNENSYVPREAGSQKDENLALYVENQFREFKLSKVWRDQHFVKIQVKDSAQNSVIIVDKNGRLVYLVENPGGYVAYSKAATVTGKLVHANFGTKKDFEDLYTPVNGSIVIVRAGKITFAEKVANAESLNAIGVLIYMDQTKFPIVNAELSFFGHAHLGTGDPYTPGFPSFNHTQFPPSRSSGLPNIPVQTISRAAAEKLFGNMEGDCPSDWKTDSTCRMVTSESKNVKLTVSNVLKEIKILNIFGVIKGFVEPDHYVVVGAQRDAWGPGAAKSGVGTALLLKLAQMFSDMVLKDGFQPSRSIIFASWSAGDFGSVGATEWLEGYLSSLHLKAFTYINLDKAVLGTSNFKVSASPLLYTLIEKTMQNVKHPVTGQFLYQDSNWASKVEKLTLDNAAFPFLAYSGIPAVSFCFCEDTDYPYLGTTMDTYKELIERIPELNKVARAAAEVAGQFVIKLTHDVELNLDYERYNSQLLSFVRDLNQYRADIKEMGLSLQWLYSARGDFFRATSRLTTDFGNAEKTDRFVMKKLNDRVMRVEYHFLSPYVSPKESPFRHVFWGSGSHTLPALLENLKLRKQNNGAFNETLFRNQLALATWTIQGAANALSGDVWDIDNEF

Kd: 10 nM
Substance: T7 peptide
